# Measured values from patent US11340215B2, “Screening method of anticancer agent focused on function of HP1 and evaluation system” (JAPANESE FOUNDATION FOR CANCER RESEARCH, priority 2016, dated 2022).
# Legend:
# [1] = molecular target: T1, Aurora B (Homo sapiens, UniProt Q96GD4); assay: Immunostaining of metaphase cells with anti-HP1α-pS92 antibody; type: cell-based; parameters: endogenous in cells; details: FIG. 5D
# Protocol: (§1) Cells were cultured on a cover glass and immobilized with 4% paraformaldehyde in PHEM buffer solution (60 mM PIPES, 25 mM HEPES, 10 mM EGTA, 2 mM MgCl2, pH7.0) or PBS, at room temperature. Cells were treated with the above buffer solution containing 0.2 to 1.0% Triton X-100, and blocked with a 3% BSA-containing buffer. Images were obtained by AxiolmagerM1 miacroscope (manufactured by Zeiss) equipped with CoolSNAP HQ camera (manufactured by Photometrics) operated by MetaMorph software (manufactured by MDS Analytical Technologies). The intensity of fluorescence was analyzed by ImageJ software (National Institute of Health).
# It was shown that the anti-HP1α-pS92 antibody sensitively detects phosphorylated HP1α even if it is used in immunostaining (FIGS. 5D, E). Cells of the interphase, cells of the metaphase, cells of the metaphase where the expression of HP1α was depleted by siRNA and cells of the metaphase where the activity of Aurora B was suppressed by ZM447439 were immunostained with an anti-HP1α-pS92 antibody (FIG. 5D). Only the metaphase cells used as the control were stained. In the interphase cells, cells where the expression of HP1α was depleted and cells where the activity of Aurora B was suppressed, phosphorylated HP1α was not detected.
# Target sequence in this assay (Q96GD4 whole entry): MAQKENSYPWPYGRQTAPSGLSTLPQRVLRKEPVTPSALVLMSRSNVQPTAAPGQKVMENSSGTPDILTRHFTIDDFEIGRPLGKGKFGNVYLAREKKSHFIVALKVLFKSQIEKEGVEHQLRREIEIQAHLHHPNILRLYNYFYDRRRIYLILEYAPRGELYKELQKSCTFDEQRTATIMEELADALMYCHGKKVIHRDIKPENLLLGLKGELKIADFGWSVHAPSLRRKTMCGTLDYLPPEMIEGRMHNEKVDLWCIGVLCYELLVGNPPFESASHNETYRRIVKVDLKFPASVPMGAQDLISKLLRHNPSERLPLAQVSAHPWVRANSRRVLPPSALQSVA
# Target sequence in this assay (Q9NQS7 whole entry partner): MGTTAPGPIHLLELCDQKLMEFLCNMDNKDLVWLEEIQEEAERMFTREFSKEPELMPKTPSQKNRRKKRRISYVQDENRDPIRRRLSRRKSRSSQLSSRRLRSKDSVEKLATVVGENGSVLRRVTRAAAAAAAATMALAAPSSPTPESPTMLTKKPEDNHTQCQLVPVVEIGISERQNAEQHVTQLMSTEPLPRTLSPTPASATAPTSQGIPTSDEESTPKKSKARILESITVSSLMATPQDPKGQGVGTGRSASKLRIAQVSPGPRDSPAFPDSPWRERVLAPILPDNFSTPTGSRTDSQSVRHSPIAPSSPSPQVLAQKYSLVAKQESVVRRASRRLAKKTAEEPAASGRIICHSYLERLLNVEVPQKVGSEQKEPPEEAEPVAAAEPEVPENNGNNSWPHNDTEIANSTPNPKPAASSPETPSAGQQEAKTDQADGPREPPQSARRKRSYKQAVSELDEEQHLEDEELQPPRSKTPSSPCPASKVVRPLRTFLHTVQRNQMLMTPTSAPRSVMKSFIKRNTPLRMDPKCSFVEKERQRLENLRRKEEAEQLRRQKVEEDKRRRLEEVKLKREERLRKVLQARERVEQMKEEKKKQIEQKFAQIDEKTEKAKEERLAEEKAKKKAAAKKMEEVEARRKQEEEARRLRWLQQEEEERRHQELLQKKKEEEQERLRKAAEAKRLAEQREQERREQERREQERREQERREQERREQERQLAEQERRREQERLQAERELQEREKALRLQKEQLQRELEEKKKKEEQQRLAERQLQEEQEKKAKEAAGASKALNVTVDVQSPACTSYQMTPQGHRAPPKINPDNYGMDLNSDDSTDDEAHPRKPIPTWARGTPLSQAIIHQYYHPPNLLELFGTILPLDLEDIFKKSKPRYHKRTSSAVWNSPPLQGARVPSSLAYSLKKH
# Target sequence in this assay (O15392 whole entry partner): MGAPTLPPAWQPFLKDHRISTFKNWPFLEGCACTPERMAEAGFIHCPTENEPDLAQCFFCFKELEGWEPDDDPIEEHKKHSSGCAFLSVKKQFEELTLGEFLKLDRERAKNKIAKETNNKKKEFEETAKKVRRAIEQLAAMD
# Target sequence in this assay (Q53HL2 whole entry partner): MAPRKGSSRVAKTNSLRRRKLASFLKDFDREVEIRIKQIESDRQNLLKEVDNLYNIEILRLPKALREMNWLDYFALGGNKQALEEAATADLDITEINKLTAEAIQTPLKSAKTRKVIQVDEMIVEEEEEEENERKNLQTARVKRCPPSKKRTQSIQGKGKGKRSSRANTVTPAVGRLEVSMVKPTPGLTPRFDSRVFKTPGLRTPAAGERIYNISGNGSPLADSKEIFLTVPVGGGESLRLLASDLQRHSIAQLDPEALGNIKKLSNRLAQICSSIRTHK
# [2] = molecular target: T1, Aurora B; assay: Kinase activity of fractions immunoprecipitated with anti-HP1α-pS92 antibody or INCENP antibody; type: biochemical; parameters: endogenous in cells; details: addition of inhibitor
# Protocol: The cells in the mitotic phase were incubated in a solution, which was prepared by adding 1 U/μl OmniCleave Endonuclease (manufactured by Epicentre) in the above immunoprecipitation buffer, at 4° C. for 30 minutes. The solution was centrifuged at 4° C. and 15,000 rpm for 10 minutes and the supernatant was further centrifuged. The resultant supernatant was used for immunoprecipitation. Protein A-Sepharose (manufactured by Bio-Rad) having an antibody bound thereto, was allowed to react with cell extracts and subjected to immunoprecipitation. The sample obtained by immunoprecipitation was subjected to the immunoblotting using peroxidase-labeled Mouse TrueBlot ULTRA or Rabbit TrueBlot (manufactured by eBioscience) as a secondary antibody.
# The kinase assay was carried out by adding a substrate in a kinase buffer (20 mM Tris-HCl, 50 mM MgCl2, 100 mM NaCl, 20 μM ATP, pH7.5) and 0.2 mCi/ml[γ^− ^32P]ATP. […] Phosphorylation was analyzed by Typhoon scanner (manufactured by GE Healthcare) and a liquid scintillation counter.
# Next, we will describe that the binding of HP1 to CPC is necessary for activating Aurora B. Immunoprecipitation was carried out with anti-HP1α-pS92 antibody and INCENP antibody and proteins constituting CPC and subtypes of HP1 were analyzed by immunoblotting (FIG. 5H, left panel). […]
# Target sequence in this assay (Q96GD4 whole entry): as the sequence (Q96GD4 whole entry) above
# Target sequence in this assay (Q9NQS7 whole entry partner): as the sequence (Q9NQS7 whole entry partner) above
# Target sequence in this assay (O15392 whole entry partner): as the sequence (O15392 whole entry partner) above
# Target sequence in this assay (Q53HL2 whole entry partner): as the sequence (Q53HL2 whole entry partner) above
# [3] = molecular target: T1, Aurora B; assay: Phosphorylation of Aurora B substrates in HeLa cells, fluorescence microscopy with phospho-specific antibodies; type: cell-based; parameters: endogenous in cells; host or cells: HeLa
# Protocol: as §1
# Target sequence in this assay (Q96GD4 whole entry): as the sequence (Q96GD4 whole entry) above
# Target sequence in this assay (Q9NQS7 whole entry partner): as the sequence (Q9NQS7 whole entry partner) above
# Target sequence in this assay (O15392 whole entry partner): as the sequence (O15392 whole entry partner) above
# Target sequence in this assay (Q53HL2 whole entry partner): as the sequence (Q53HL2 whole entry partner) above
# Next, activation of Aurora B was analyzed based on degree of phosphorylation of a substrate. HeLa cells were transfected with siRNA of all subtypes of HP1 to inhibit expression of all HP1 subtypes. […] The cells were immobilized and then analyzed by a fluorescence microscope using an antibody recognizing phosphorylation of serine at position 10 of histone H3 (H3-pS10, 6G3, manufactured by Cell Signaling Technology) (FIG. 4B); an antibody recognizing phosphorylation of serine at position 44 of Hec1 (Hec1-pS44, Non Patent Literature 8); an Hec1 antibody (9G3.23, manufactured by Novus Biologicals) (FIG. 4C); and an antibody recognizing phosphorylation of serine at position 100 of Dsn1 (Dsn-pS100, Non Patent Literature 9) (FIG. 4D).
# [4] = molecular target: T1, Aurora B; assay: In vitro kinase assay with recombinant INCENP, Aurora B and HP1; type: biochemical; details: for activation of Aurora B: recombinant proteins, 1 μM HP1
# Protocol: The kinase assay was carried out by adding a substrate in a kinase buffer (20 mM Tris-HCl, 50 mM MgCl2, 100 mM NaCl, 20 μM ATP, pH7.5) and 0.2 mCi/ml[γ^− ^32P]ATP. As the substrate, GST-Hec1 (1-80) or recombinant histones H3 (manufactured by New England Biolas) was used. Twenty nM INCENP and 120 nM GST-Aurora B were reacted in the presence or absence of 1 μM HP1 at 30° C. for 20 minutes and the reaction was terminated by Laemmli sample buffer. Phosphorylation was analyzed by Typhoon scanner (manufactured by GE Healthcare) and a liquid scintillation counter.
# Using recombinant proteins of INCENP, Aurora B and HP1α, in vitro kinase assay was carried out (FIG. 6C). […] Accordingly, it was shown that physical binding of HP1 to INCENP is required for activation of Aurora B, and that HP1 has an allosteric effect on Aurora B.
# Then, enzyme kinetics analysis of Aurora B was carried out. […] Further, analysis of proteins binding to GST-Aurora B was carried out by the GST pull down assay. As a result, the amount of Hec1 binding to GST-Aurora B increased in the conditions where HP1 can bind to INCENP. […] Accordingly, binding of HP1α to INCENP is required for activating Aurora B.
# Target sequence in this assay (Q96GD4 whole entry): as the sequence (Q96GD4 whole entry) above
# Target sequence in this assay (Q9NQS7 whole entry partner): as the sequence (Q9NQS7 whole entry partner) above
# [5] = molecular target: T2, HP1α (Homo sapiens, UniProt P45973); assay: Binding assay of INCENP (positions 121 to 270) and HP1α by isothermal titration calorimetry
# T2 construct: His tag or GST tag
# Protocol: Wild type HP1α and a region at positions 121 to 270 in INCENP (SEQ ID NO: 8, INCENP WT) were used in the binding assay. The region at positions 121 to 270 in INCENP contains an important motif […], required for binding to HP1. A mutant (SEQ ID NO: 9, INCENP 3A) was obtained by substituting three amino acids in this region with alanine residues and used as a control. A dissociation constant thereof was determined by isothermal titration calorimetry. As an isothermal titration calorimetry apparatus, any device may be used. For example, using MicroCal iTC2000 system (manufactured by GE healthcare biosciences), measurement may be carried out, in accordance with a conventional method.
# The above peptides, to which His tag or GST tag was attached, were subjected to isothermal titration calorimetry to determine a dissociation constant. Note that, the dissociation constant was computationally obtained based on average values of 5 experiments.
# T2 sequence (P45973 whole entry): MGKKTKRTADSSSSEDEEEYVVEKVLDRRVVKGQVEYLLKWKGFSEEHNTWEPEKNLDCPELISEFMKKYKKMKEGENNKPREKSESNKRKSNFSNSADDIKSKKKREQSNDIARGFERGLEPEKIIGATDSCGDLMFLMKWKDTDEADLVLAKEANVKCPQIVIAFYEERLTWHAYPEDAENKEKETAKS
molecule,measurement,setting,value
COc1cc2c(Nc3ccc(NC(=O)c4ccccc4)cc3)ncnc2cc1OCCCN1CCOCC1 [ZM447439],phosphorylated HP1α detected by immunostaining,[1],not detected
same,kinase activities of the fractions obtained by immunoprecipitation with the anti-HP1α-pS92 antibody and the INCENP antibody,[2],inhibited
same,"Phosphorylation by Aurora B of substrates (H3, Hec1, Dsn1)",[3]; FIGS. 4B to 4D legend,suppressed
same,effect on phosphorylation of Hec1 and Dsn1,"[3]; HeLa cells, low concentration (0.4 μM)",suppressive effect equal to the effect produced by depletion of HP1
"HP1 mutant I165E: HP1 mutant which cannot form a dimer, cannot bind to INCENP",activation of Aurora B,[4],does not activate
HP1α: recombinant heterochromatin protein 1 subtype α,reaction rate of substrate phosphorylation by Aurora B per unit time,"[4]; enzyme kinetics analysis, FIG. 6G",significantly increases
same,activation of Aurora B,[4],highly activate
HP1β: heterochromatin protein 1 subtype β,activation of Aurora B,[4],highly activate
HP1γ: heterochromatin protein 1 subtype γ,activation of Aurora B,[4],highly activate
"INCENP 3A: mutant (SEQ ID NO: 9) obtained by substituting three amino acids of the P×V×I motif with alanine residues (protein, HP1 binding site mutant) LRRVTRAAAAAAAATMALAAPSSPTPESPTMLTKKPEDNHTQCQLVAVAEAGISERQNAEQHVTQLMSTEPLPRTLSPTPASATAPTSQGIPTSDEESTPKKSKARILESITVSSLMATPQDPKGQGVGTGRSASKLRIAQVSPGPRDSP",binding to HP1,[5],does not bind to HP1
"INCENP WT: region at positions 121 to 270 in INCENP (SEQ ID NO: 8), with His tag or GST tag (protein, listed as Homo sapiens, His tag or GST tag) LRRVTRAAAAAAAATMALAAPSSPTPESPTMLTKKPEDNHTQCQLVPVVEIGISERQNAEQHVTQLMSTEPLPRTLSPTPASATAPTSQGIPTSDEESTPKKSKARILESITVSSLMATPQDPKGQGVGTGRSASKLRIAQVSPGPRDSP",Binding,"[5]; binding to wild type HP1α, isothermal titration calorimetry, His tag or GST tag peptides",◯
